# Data from IntAct's records for PubMed 17157260.
# B1: Protein YNG1 (Saccharomyces cerevisiae), Q08465 (parent)
# chain: MEHLANENSDSDIRYSFLSTLDHLPCELIRSLRLMQTIDLFKNEEDEPGMERACRDLLLVATYINDLVDDQIHFLKQHKKELEIQKSVTKNFNSSLENIKSKLTLEEPGAYKEPKLLLKINLKKAKSRERKESITSPTIGINQGDVTEGNNNQEEVYCFCRNVSYGPMVACDNPACPFEWFHYGCVGLKQAPKGKWYCSKDCKEIANQRSKSKRQKRRK
# Variants of: B1
# Conditions: with h3_yeast HHT1, P61830
row,Variant,effect of a mutation on the interaction
1,MEHLANENSDSDIRYSFLSTLDHLPCELIRSLRLMQTIDLFKNEEDEPGMERACRDLLLVATYINDLVDDQIHFLKQHKKELEIQKSVTKNFNSSLENIKSKLTLEEPGAYKEPKLLLKINLKKAKSRERKESITSPTIGINQGDVTEGNNNQEEVYCFCRNVSYGPMVACDNPACPFEEFHYGCVGLKQAPKGKWYCSKDCKEIANQRSKSKRQKRRK [W180E],decreasing interaction
